This passage reports binding result and Kd results from article PMC6135609, “Poly(ADP-ribose) polymerase 1 searches DNA via a ‘monkey bar’ mechanism”.

Conditions in all cases: protein: recombinant; (Ni-NTA; pET28a); blunt
One series has as its target PARP1 dWGR (human, UniProt P09874 1-517+=ALAGSGSGSGSGSGLALLLAGSGSGSGSGAAL+655-1014, internal_change). Description: stopped-flow fluorescence anisotropy; k1 similar to WT; Scheme 2 dissociation, no ternary complex; 50 mM Tris-HCl pH 7.5, 50 mM NaCl, 1 mM MgCl2, 0.1 mM EDTA, 0.01% IGEPAL, 20 C. A general note: Polarisation of emitted light reports the rotation of a fluorescent probe.

A further series addresses PARP1 dZn3 (human, UniProt P09874 1-215+=ALAGSGSGSGSGSGLALLLAGSGSGSGSGAAL+367-1014, internal_change). As to the kind of experiment: stopped-flow fluorescence anisotropy; k1 similar to WT; Scheme 3 dissociation; 50 mM Tris-HCl pH 7.5, 50 mM NaCl, 1 mM MgCl2, 0.1 mM EDTA, 0.01% IGEPAL, 20 C.
The target of a further series is PARP1 dZn1 (human, UniProt P09874 97-1014, del2-96). The series is described as above.
In another series the target is PARP1 dZn2 (human, UniProt P09874 1-96+=ALAGSGSGSGSGSGLALLLAGSGSGSGSGAAL+207-1014, internal_change). The description is as above.
The next series concerns the target PARP1 WT (human, UniProt P09874 1-1014). As to the kind of experiment: stopped-flow fluorescence anisotropy; kinetic Kd; k1 3.1 nM-1 s-1, k-1 <10 s-1; 50 mM Tris-HCl pH 7.5, 50 mM NaCl, 1 mM MgCl2, 0.1 mM EDTA, 0.01% IGEPAL, 20 C.

A value given as a limit tells only on which side of the number the result lay.

Sequence of PARP1 dZn3 (P09874 other isoform, or with tags, fused parts or gaps): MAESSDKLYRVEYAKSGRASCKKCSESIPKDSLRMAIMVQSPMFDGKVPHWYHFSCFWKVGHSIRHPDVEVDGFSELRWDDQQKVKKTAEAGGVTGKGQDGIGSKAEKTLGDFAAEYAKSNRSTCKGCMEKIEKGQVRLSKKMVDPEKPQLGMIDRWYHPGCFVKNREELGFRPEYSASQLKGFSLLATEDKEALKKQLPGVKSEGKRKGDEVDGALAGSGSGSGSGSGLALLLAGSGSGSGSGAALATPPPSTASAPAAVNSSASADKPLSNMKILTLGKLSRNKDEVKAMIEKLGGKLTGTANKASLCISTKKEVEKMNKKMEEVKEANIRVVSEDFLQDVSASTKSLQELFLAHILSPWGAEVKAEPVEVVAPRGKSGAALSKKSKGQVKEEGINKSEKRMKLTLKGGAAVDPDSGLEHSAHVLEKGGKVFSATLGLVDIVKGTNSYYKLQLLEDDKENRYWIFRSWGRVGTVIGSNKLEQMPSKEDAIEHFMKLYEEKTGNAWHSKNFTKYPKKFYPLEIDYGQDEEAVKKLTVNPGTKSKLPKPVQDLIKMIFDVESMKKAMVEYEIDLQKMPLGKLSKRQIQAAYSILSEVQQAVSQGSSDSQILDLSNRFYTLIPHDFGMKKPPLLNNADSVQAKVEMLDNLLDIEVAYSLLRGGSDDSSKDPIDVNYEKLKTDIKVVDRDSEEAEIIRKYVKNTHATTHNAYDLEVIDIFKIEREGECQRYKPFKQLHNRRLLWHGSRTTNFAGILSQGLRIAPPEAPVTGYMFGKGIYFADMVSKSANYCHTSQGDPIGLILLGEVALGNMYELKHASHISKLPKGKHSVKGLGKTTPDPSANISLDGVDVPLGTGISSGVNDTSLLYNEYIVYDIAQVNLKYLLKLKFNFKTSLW
Sequence of PARP1 dZn1 (P09874 97-1014, stated change not applied): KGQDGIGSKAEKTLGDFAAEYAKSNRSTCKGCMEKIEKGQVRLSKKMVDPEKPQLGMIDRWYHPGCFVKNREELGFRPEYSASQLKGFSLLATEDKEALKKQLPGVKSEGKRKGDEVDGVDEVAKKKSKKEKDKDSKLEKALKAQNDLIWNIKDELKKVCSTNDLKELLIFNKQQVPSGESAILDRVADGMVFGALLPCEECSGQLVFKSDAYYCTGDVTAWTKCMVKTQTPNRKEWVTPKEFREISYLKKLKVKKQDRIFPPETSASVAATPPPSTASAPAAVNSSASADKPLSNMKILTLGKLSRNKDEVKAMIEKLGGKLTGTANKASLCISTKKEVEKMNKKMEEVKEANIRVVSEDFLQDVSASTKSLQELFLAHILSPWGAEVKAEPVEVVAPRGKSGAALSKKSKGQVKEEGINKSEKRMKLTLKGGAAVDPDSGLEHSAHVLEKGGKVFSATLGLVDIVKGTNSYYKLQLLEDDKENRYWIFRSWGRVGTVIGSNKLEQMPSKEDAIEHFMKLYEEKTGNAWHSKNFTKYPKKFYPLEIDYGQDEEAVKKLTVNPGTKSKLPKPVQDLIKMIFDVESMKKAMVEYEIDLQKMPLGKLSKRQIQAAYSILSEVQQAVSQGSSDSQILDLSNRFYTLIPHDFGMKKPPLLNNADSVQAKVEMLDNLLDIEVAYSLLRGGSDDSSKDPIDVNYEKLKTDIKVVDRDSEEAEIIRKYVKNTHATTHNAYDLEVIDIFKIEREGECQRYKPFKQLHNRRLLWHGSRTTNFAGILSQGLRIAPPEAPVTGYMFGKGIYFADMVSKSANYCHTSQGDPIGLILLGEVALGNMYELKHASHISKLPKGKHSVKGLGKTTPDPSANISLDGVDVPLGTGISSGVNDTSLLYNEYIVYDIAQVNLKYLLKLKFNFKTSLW
Sequence of PARP1 dWGR (P09874 other isoform, or with tags, fused parts or gaps): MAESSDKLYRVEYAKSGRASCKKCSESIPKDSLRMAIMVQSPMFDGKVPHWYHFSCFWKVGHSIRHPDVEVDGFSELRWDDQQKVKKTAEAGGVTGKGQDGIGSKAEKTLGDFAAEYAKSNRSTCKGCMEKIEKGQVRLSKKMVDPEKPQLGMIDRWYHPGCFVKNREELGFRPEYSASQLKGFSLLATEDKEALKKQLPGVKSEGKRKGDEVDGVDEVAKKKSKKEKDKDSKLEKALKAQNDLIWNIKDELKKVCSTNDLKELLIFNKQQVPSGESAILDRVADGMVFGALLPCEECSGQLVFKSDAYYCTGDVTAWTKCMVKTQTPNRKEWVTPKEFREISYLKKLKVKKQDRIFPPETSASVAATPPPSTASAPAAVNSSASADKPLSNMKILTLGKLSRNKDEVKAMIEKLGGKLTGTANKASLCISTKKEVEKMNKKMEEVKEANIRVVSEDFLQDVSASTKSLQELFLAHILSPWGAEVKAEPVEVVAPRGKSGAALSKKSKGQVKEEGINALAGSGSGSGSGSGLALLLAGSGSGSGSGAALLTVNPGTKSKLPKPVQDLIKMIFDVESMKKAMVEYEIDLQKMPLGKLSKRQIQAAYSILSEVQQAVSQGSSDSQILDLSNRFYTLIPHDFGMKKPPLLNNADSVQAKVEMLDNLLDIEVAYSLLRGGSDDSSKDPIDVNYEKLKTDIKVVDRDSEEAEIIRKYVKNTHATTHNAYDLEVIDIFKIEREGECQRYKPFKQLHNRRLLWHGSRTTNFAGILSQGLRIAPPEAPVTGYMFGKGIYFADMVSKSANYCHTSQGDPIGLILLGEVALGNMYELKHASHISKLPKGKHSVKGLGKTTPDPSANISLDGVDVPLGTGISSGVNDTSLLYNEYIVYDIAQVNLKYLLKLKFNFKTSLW
Sequence of PARP1 WT (P09874 whole entry): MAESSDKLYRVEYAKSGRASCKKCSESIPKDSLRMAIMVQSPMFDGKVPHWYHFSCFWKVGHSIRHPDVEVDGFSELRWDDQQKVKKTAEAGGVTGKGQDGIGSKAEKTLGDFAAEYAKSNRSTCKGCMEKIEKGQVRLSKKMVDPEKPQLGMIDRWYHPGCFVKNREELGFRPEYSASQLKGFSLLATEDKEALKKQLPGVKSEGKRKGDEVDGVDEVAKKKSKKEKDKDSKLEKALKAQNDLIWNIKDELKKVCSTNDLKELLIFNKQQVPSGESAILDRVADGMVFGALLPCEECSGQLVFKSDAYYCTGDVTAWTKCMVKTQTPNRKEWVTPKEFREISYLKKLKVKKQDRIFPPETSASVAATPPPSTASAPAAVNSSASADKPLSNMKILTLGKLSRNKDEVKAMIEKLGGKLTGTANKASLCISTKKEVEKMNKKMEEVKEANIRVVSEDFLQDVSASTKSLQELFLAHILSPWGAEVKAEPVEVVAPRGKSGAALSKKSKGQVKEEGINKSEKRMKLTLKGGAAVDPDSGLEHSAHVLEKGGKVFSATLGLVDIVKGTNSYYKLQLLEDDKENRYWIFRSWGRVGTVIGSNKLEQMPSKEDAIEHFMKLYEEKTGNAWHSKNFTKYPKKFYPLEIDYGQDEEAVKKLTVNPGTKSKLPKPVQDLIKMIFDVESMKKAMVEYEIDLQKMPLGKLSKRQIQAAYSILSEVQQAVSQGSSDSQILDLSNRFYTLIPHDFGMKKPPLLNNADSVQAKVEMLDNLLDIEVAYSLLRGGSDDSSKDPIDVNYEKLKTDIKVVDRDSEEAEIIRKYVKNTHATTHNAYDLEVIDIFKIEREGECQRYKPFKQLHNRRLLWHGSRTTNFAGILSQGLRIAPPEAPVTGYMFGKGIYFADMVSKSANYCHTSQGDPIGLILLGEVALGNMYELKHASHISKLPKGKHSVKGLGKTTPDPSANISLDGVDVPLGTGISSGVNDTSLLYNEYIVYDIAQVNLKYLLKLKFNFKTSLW
Sequence of PARP1 dZn2 (P09874 other isoform, or with tags, fused parts or gaps): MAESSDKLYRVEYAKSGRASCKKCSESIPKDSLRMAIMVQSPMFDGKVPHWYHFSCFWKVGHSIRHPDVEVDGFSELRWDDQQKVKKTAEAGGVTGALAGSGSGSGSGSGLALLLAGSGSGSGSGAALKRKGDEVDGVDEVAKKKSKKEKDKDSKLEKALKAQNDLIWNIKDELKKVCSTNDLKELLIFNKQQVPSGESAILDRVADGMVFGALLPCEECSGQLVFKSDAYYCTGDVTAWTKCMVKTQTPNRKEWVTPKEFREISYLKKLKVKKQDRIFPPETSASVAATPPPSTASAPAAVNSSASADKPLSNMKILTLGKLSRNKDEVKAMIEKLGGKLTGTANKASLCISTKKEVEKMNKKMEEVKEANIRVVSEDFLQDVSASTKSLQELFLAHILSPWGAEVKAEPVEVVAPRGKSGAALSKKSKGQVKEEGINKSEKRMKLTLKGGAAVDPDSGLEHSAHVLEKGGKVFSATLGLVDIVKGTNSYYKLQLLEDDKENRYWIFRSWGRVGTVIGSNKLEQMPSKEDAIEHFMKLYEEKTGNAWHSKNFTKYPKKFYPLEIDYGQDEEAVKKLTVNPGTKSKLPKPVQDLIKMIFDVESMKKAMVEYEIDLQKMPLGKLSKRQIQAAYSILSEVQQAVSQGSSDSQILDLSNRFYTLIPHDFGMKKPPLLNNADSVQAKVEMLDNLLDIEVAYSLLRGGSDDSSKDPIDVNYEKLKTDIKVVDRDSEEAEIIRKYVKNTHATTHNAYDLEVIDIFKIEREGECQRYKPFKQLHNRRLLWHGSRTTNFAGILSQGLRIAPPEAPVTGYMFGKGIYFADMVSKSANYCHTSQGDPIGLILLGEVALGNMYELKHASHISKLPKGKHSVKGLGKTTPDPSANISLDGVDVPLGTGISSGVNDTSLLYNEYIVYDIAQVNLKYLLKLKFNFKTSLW

B1: p18mer* (labeled DSB model) (dsDNA)
DNA 1: GGGTTGCGGCCGCTTGGG
DNA 2: CCCAAGCGGCCGCAACCC
modifications: 5'-phosphate
For orientation: Kd means a measure of binding affinity in units of concentration. Regarding B1, the binding result with PARP1 dWGR, with PARP1 dZn3, with PARP1 dZn1 and in the series with PARP1 dZn2 was “binds” each time. Moreover, in the series with PARP1 WT, the equilibrium dissociation constant (Kd) was less than 3 nM.
